Test results: patent US20250250357A1 (NANJING ZAIMING PHARMACEUTICAL, published 2025)
Like-named read-outs stand apart in the source and are kept apart here.

T1: monkey MSLN full-length protein (NCBI: XP_028696439.1) expressed on HEK293T-monkey MSLN cells (monkey)
T1 construct: Whole encoded precursor
T1 chain: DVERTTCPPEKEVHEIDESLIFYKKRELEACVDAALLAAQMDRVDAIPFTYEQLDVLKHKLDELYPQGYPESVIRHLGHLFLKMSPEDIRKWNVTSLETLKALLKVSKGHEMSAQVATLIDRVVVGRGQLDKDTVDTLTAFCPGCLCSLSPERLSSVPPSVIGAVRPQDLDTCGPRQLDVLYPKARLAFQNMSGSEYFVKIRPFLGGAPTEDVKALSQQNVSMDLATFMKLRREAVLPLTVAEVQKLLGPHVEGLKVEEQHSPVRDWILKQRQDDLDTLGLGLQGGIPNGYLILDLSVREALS


What was measured:
[1] = target: T2, human MSLN full-length protein (NCBI: AAH09272.1) expressed on HEK293T-hMSLN-B8 cells (human, UniProt Q13421 296-598); assay: FACS on HEK293T-hMSLN-B8 cells
T2 construct: Whole encoded precursor
Experimental: (§1) The desired cells were expanded to the logarithmic growth phase in a T-75 cell culture flask. […] After the cells from the previous step were subjected to cell counting, the cell pellet was resuspended to 2×10⁶ cells/mL in a blocking buffer of [PBS+2% (w/w) BSA] and added into a 96-well FACS reaction plate at 50 μL/well. A chimeric antibody (a sample to be tested) was added at 50 μL/well, and the plate was incubated on ice for 2 h. […] After the plate was centrifuged and washed 5 times with a PBST buffer, assay and analysis were performed by FACS (FACS CantoII, purchased from BD). Data analysis was performed by software (Flowjo) to obtain the mean fluorescence intensity (MFI) of the cells.

[2] = target: T1, monkey MSLN full-length protein (NCBI: …); assay: FACS on HEK293T-monkey MSLN cells
Experimental: as §1

[3] = target: T3, human MSLN-R3 protein (Met487-Ser606 of NCBI AAH09272.1) expressed on HEK293T-hMSLN-R3 cells (human, UniProt Q13421 487-606); assay: FACS on HEK293T-hMSLN-R3 cells
T3 construct: also called Region3
Experimental: as §1

[4] = target: T4, human MSLN protein endogenously expressed on OVCAR3 tumor cells (human, UniProt Q13421 296-598); assay: FACS on OVCAR3 cells
T4 construct: whole, on cells; Endogenous target on OVCAR3 cells; kept apart from the recombinant full-length construct; also called mesothelin
T4 sequence (Q13421 other isoform, or with tags, fused parts or gaps): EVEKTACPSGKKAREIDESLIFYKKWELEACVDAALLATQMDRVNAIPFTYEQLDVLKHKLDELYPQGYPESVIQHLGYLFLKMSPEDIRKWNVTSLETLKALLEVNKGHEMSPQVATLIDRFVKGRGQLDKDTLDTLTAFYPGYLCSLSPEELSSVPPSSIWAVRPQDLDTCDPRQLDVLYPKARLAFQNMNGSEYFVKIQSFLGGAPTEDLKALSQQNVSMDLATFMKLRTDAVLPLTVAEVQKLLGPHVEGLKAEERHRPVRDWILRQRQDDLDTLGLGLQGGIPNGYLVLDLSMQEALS
Experimental: as §1

[5] = target: T5, human MSLN-FL-his protein (human, UniProt Q13421 296-580); assay: competitive ELISA; row F8-9.16; further: test concentration or dose not given here
T5 construct: made in HEK293E cells, purified on nickel column; also called hMSLN-FL-his; human MSLN full-length protein; not shown: His tag

[6] = target: T6, human MSLN protein endogenously expressed on OVCAR3 tumor cells (human, UniProt Q13421 296-598); assay: FACS on OVCAR3 cells
T6 construct: whole, on cells; endogenous expression on a tumor cell line; also called human mesothelin
Experimental: as §1

[7] = target: T7, human MSLN-R3 protein expressed on HEK293T cells (HEK293T-hMSLN-R3) (human, UniProt Q13421 487-606); assay: FACS on HEK293T-hMSLN-R3 cells;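 further: chimeric antibodies incubated with cells on ice for 2 h, binding read by flow cytometry as mean fluorescence intensity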
T7 construct: C-terminal limit uncertain
Experimental: as §1

[8] = target: T5, human MSLN-FL-his protein; assay: competitive ELISA; row F8-8.22; further: test concentration or dose not given here
[9] = target: T5, human MSLN-FL-his protein; assay: competitive ELISA; row F8-32.3; further: test concentration or dose not given here
[10] = target: T5, human MSLN-FL-his protein; assay: competitive ELISA; row F8-29.1; further: test concentration or dose not given here
[11] = target: T5, human MSLN-FL-his protein; assay: competitive ELISA; row F8-33.12; further: test concentration or dose not given here
[12] = target: T5, human MSLN-FL-his protein; assay: competitive ELISA; row Tab142; further: test concentration or dose not given here
[13] = target: T5, human MSLN-FL-his protein; assay: competitive ELISA; row F8-28.23; further: test concentration or dose not given here
[14] = target: T5, human MSLN-FL-his protein; assay: competitive ELISA; row F8-22.23; further: test concentration or dose not given here
[15] = target: T5, human MSLN-FL-his protein; assay: competitive ELISA; row Tab021; further: test concentration or dose not given here
[16] = target: T5, human MSLN-FL-his protein; assay: competitive ELISA; row F8-36.12; further: test concentration or dose not given here
[17] = target: T5, human MSLN-FL-his protein; assay: competitive ELISA; row F8-24.14; further: test concentration or dose not given here
[18] = target: T5, human MSLN-FL-his protein; assay: SPR (Biacore), antibody captured on Protein A chip;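 further: flow cell at 25 °C, antigen injected for 240 s at five concentrations from 200 nM downward, dissociation followed up to 600 s, double-referenced, fitted with Langmuir 1:1 model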

T2 sequence (Q13421 other isoform, or with tags, fused parts or gaps limits assumed): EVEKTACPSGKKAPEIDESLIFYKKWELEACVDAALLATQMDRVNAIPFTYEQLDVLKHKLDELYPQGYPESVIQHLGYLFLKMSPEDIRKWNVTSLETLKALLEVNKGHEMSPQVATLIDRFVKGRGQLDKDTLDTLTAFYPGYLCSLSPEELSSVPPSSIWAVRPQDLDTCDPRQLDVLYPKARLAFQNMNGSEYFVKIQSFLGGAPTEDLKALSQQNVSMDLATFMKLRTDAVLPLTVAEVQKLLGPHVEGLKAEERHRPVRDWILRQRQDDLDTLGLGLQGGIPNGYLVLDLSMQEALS
T3 sequence (Q13421 495-614): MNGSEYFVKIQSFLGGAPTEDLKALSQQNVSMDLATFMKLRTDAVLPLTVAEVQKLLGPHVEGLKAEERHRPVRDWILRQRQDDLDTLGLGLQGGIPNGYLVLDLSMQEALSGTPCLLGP
T7 sequence (Q13421 495-614): as above
T5 sequence (Q13421 other isoform, or with tags, fused parts or gaps): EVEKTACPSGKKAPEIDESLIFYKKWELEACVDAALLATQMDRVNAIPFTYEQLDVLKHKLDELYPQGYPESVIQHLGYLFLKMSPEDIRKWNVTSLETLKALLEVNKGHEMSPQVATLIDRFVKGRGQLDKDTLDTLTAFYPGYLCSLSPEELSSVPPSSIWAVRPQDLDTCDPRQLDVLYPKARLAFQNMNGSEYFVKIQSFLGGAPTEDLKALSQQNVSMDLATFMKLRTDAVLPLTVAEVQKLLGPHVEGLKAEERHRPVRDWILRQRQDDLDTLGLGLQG

Row | EC50 [1] | Maximum mean fluorescence intensity [1] | competition rate [5] | EC50 [6] | Maximum mean fluorescence intensity [6] | Maximum mean fluorescence intensity [7] | binding result [7] | competition rate [8] | competition rate [9] | competition rate [10] | competition rate [11] | competition rate [12] | competition rate [13] | competition rate [14] | competition rate [15] | competition rate [16] | competition rate [17] | Kd [18] | koff [18] | kon [18] | Binder | other results
1 | 0.41 nM | 202000 |  |  |  |  |  |  |  |  |  |  |  |  |  |  |  |  |  |  | S009-F6-62.5 (antibody, human IgG1, kappa, V domains shown, human-murine chimeric antibody, human IgG1/kappa constant regions) VH: QVQLQQPGTELVKPGASVKLSCRASGYTFTAYWMHWVKQRPGQGLEWIGNINPSNGGTDFNEKFKSKATLTVDKSSSTAYMQLSSLTSEDSAVYYCARGRGYFDVWGTGTTVTVSS VL: DILLTQSPAILSVSPGERVSFSCRASKNIGTSIHWYQQRTNGSPRLLIKYASESISGIPSRFSGSGSGTDFTLNINSVESEDIADYYCQQSNSWPTLTFGAGTKLELKR | Maximum mean fluorescence intensity [2]: 202; binding result [2]: no binding; Maximum mean fluorescence intensity [3]: 186; binding result [3]: no binding; EC50 [4]: 0.31 nM; Maximum mean fluorescence intensity [4]: 2600
2 | 0.76 nM | 240000 |  |  |  |  |  |  |  |  |  |  |  |  |  |  |  |  |  |  | S009-F5-9.16 (antibody, human IgG1, kappa, V domains shown, human-murine chimeric antibody, human IgG1/kappa constant regions) VH: EVQLRQSGPVLVKPGASVKMSCKASGYTFTDYFMNWVKPSHGKSLEWIGVINPSNGVINYNQRFKGKATLTVDKSSSTAYMELNSLTSEDSAVYYCARSYDFAWFAYWGQGTLVTVSA VL: DVLMTQTPLSLPVSLGDQASISCRSSQNIVHSNGNTYLEWYLQKPGQSPKLLIYTVSNRFSGVPDRFSGSGSGTDFTLKISRVEAEDLGVYYCFQGSHVPYTFGGGTKLEIKR | Maximum mean fluorescence intensity [2]: 365; binding result [2]: no binding; EC50 [3]: 0.35 nM; Maximum mean fluorescence intensity [3]: 63900; EC50 [4]: 0.82 nM; Maximum mean fluorescence intensity [4]: 3510
3 |  |  | -39.8% | 59.8 nM | 1290 | 51 | no binding | 24.9% | 22.9% | 18.8% | 10% | 9.8% | 73.4% | 38.6% | 7.7% | -79.5% | 33.6% | 44 nM | 0.00843 s⁻¹ | 192000 M⁻¹ s⁻¹ | S009-F8-28.23 (antibody, human IgG1, kappa, V domains shown, human-murine chimeric antibody, human IgG1/kappa constant regions) VH: EVQLVESGGDLVKPGGSLKLSCAASGFTFSSYAMSWVRQTPEKRLEWVATISDGGSYTYYPDNVEGRFTISRDNAKNNLYLQMSHLKSEDTAMYYCAGDRGYSYALDYWGQGTSVTVSS VL: NIMMTQSPSSLAVSAGEKVTMSCKSSQSVLYSSNQKNYLAWYQQKPGQSPKLLIYWASTRESGVPDRFTGSGSGTDFTLTISSVQAEDLAVYYCHQYLSSLTFGAGTKLELKR | 
4 |  |  | -89.6% | 28.4 nM | 2410 | 64 | no binding | 96% | 84.9% | 70.6% | 62.8% | 47.9% | 102% | 96.6% | 9.4% | -134% | 95.5% | 5.77 nM | 0.0361 s⁻¹ | 6.27e+06 M⁻¹ s⁻¹ | S009-F8-33.12 (antibody, human IgG1, kappa, V domains shown, human-murine chimeric antibody, human IgG1/kappa constant regions) VH: EVQLQQSGAELVKPGASVKLSCTASAFNIKDYYMHWVKQRTEQGLEWIGRIDPEDGETKYAPKFQGKATITADTSSNTAYLQLSSLTSEDTAVYYCASGSGTGAMDYWGQGTSVTVSS VL: DIVMTQSQKFMSTSVGDRVSITCKASQNVRTAVGWYQQKPGQSPKALIYLASNRHTGVPDRFTGSGSGTDFTLTISNVQSEDLADYFCLQHWNSPYTFGGGTKLVIKR | 
5 |  |  | -37.3% | 33.4 nM | 5430 | 69 | no binding | 88.4% | 75.8% | 62.2% | 47.3% | 36.8% | 96% | 88.5% | 11.1% | -146% | 89.8% | 27.4 nM | 0.0199 s⁻¹ | 728000 M⁻¹ s⁻¹ | S009-F8-29.1 (antibody, human IgG1, kappa, V domains shown, human-murine chimeric antibody, human IgG1/kappa constant regions) VH: QVQLQQSGAELARPGASVKMSCKASGYTFISYTMHWVKQRPGQGLEWIGYINPSSGYTKYNQKFKDKATLTADKSSSTAYMQLNSLTSEDSAVYYCARYYSNPDYYAMDYWGQGTSVTVSS VL: QIVLTQSPAIMSASPGEKVTITCSASSSVSYMHWFQQKPGTSPKLWIYSTSNLASGVPARFSGSGSGTSYSLTISRMEAEDAATYYCQQRSSYPLTFGGGTKLELKR | 
6 |  |  | -158% | 12.8 nM | 5500 | 404 |  | 94% | 85.4% | 70% | 60.3% | 46.4% | 100% | 95.7% | 11.4% | -156% | 92.4% | 6.35 nM | 0.00275 s⁻¹ | 433000 M⁻¹ s⁻¹ | S009-F8-22.23 (antibody, human IgG1, kappa, V domains shown, human-murine chimeric antibody, human IgG1/kappa constant regions) VH: QVQLKQSGPGLVQPSQSLSITCTVSGFSLFSYGVHWVRQSPGKGLEWLGVIWSGGSTDYNAAFISRLSISKDNSKSQVFFKMNSLQADDTAMYYCARNGGSMITTLYYAMDYWGQGTSVTVSS VL: DVVMTQTPLSLPVSLGDQASISCRSSQSLVHSYGNTYLHWYLQKPGQSPKLLIYKVSNRFSGVPDRFSGSGSGTDFTLKISRVEAEDLGVYFCSQSTHIPFTFGGGTKLEIKR | 
7 | 1.39 nM | 231000 |  |  |  |  |  |  |  |  |  |  |  |  |  |  |  |  |  |  | S009-F6-76.1 (antibody, human IgG1, kappa, V domains shown, human-murine chimeric antibody, human IgG1/kappa constant regions) VH: QVQLQQSGPELVKPGASVKISCKASGYTFTDYYINWVKQRPGQGLEWIGWIFPGRGSTFYYEKFKGKATLTVDKSSSTAYMLLSSLTSEDSAVYFCARRGDSAGYEDLDYWGQGTSVTVSS VL: NIVMTQSPKFMSMSVGERVTLSCKASENVVTYVSWYQQKPKQSPKLLIYGASKRYTGVPDRFTGSGSATDFTLTISSVQAEDLGDYHCGQSYSYPYTFGGGTKLEIKR | Maximum mean fluorescence intensity [2]: 131; binding result [2]: no binding; Maximum mean fluorescence intensity [3]: 135; binding result [3]: no binding; EC50 [4]: 4.13 nM; Maximum mean fluorescence intensity [4]: 6810
8 |  |  | -52.1% | 9.9 nM | 4270 | 122 | no binding | 92.2% | 77.7% | 59.2% | 53.5% | 33.8% | 97.4% | 96.1% | 12.6% | -138% | 91.1% | 12.8 nM | 0.00937 s⁻¹ | 732000 M⁻¹ s⁻¹ | S009-F8-8.22 (antibody, human IgG1, kappa, V domains shown, human-murine chimeric antibody, human IgG1/kappa constant regions) VH: EVQLQQSGPELVKPGASVKMSCKASGYTFTDYIIHWVKQSHGKSLEWIAYIFPNNGGTGYNQKFRGKATLTVNKSSSTAYMELRSLTSEDSAVYYCARWRLRQYFDVWGTGTTVTVSS VL: DIVMTQSQKFMSTIVGDRVSITCKASQNVGTAVAWYQQKPGQSPKLLIYSASNRYTGVPDRFTGSGSGTDFTLTISNMQSEDLADYFCQQYSSYPLTFGGGTKLEIKR | 
